B1: 103.2 mAb (antibody, V domains shown)
VH: QVQLQQSGAEVVRPGTSVKVSCKASGYAFTSYLIHWIKQRPGQGLEWIGVINPRSGDSHYNEKFKDRTTLTADQSSSTAYMQLSSLTSDDSAVYFCARSDYGAYWGQGTLVTVSA
VL: DIVLTQSPVTLSVTPGDSVSLSCRASQSISNNLHWYRQKSHESPRLLIKYASQSIFGIPSRFSGSGSGTEFTLSINSVETEDFGIYFCQQSNSWPHTFGTGTKLELK
B2: 103.2^10 mAb hinge variant (antibody, V domains shown)
VH: QVQLQQSGAEVVRPGTSVKVSCKASGYAFTSYLIHWIKQRPGQGLEWIGVINPRSGDSHYNEKFKDRTTLTADQSSSTAYMQLSSLTSDDSAVYFCARSDYGAYWGQGTLVTVSA
VL: DIVLTQSPVTLSVTPGDSVSLSCRASQSISNNLHWYRQKSHESPRLLIKYASQSIFGIPSRFSGSGSGTEFTLSINSVETEDFGIYFCQQSNSWPHTFGTGTKLELK
B3: 103.2^15 mAb hinge variant (antibody, V domains shown)
VH: QVQLQQSGAEVVRPGTSVKVSCKASGYAFTSYLIHWIKQRPGQGLEWIGVINPRSGDSHYNEKFKDRTTLTADQSSSTAYMQLSSLTSDDSAVYFCARSDYGAYWGQGTLVTVSA
VL: DIVLTQSPVTLSVTPGDSVSLSCRASQSISNNLHWYRQKSHESPRLLIKYASQSIFGIPSRFSGSGSGTEFTLSINSVETEDFGIYFCQQSNSWPHTFGTGTKLELK
B4: 103.2^30 mAb hinge variant (antibody, V domains shown)
VH: QVQLQQSGAEVVRPGTSVKVSCKASGYAFTSYLIHWIKQRPGQGLEWIGVINPRSGDSHYNEKFKDRTTLTADQSSSTAYMQLSSLTSDDSAVYFCARSDYGAYWGQGTLVTVSA
VL: DIVLTQSPVTLSVTPGDSVSLSCRASQSISNNLHWYRQKSHESPRLLIKYASQSIFGIPSRFSGSGSGTEFTLSINSVETEDFGIYFCQQSNSWPHTFGTGTKLELK
B5: 103.2^5 mAb hinge variant (antibody, V domains shown)
VH: QVQLQQSGAEVVRPGTSVKVSCKASGYAFTSYLIHWIKQRPGQGLEWIGVINPRSGDSHYNEKFKDRTTLTADQSSSTAYMQLSSLTSDDSAVYFCARSDYGAYWGQGTLVTVSA
VL: DIVLTQSPVTLSVTPGDSVSLSCRASQSISNNLHWYRQKSHESPRLLIKYASQSIFGIPSRFSGSGSGTEFTLSINSVETEDFGIYFCQQSNSWPHTFGTGTKLELK

biological target: Biotinylated BTN3A1 ectodomain + avitag (Homo sapiens, UniProt O00481, biotin on the C-terminal BirA biotinylation sequence); test: BLI
Sequence (O00481 whole entry, looked up, the tested form may be a part): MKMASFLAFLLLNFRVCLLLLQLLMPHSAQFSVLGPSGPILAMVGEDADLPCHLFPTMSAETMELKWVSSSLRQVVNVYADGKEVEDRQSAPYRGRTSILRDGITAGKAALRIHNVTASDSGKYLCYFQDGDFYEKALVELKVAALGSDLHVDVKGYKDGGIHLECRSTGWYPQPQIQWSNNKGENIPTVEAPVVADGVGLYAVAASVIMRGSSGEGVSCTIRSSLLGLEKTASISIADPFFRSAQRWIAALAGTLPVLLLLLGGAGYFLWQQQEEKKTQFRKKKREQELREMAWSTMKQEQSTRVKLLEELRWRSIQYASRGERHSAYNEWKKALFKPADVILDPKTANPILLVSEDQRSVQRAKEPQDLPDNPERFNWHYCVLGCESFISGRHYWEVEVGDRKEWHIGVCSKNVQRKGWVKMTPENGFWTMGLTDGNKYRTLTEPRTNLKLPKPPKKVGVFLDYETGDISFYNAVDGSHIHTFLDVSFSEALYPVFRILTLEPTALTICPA

Binding result, binds:
B1, B2, B3, B4, B5

— paper PMC11982570 (Scientific Reports, 2025)
